Reference: patent US20120316071A1 (published 2012)

Experiments:
[1] = target: T1, rHuman P-Cadherin/Fc Chimera, CF (R&D Systems Cat#861-PC) (human, UniProt P22223 108-654); assay: ECL multispot (MSD), antigen spotted, Fab in solution; blank spot 352
T1 construct: Bought reagent

[2] = target: T2, rHuman CD44/Fc Chimera, CF (R&D Systems Cat#3660-CD) (human, UniProt P16070 21-220); assay: as above
T2 construct: Bought reagent

[3] = target: T3, rHuman Erythropoietin R/Fc Chimera, CF (R&D Systems Cat#963-ER) (human, UniProt P19235 25-250); assay: as above
T3 construct: Bought reagent; also called EPO R; Epo R/Fc
T3 sequence (looked up): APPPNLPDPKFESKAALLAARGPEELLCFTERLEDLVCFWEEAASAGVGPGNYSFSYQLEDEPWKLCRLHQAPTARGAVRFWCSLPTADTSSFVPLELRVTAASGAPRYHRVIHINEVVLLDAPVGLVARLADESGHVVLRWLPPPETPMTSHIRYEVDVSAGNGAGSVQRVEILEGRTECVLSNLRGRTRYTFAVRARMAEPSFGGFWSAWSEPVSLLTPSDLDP

[4] = target: T4, rHuman IGF-1 sR (insulin-like growth factor-1 soluble receptor), CF (R&D Systems Cat#391-GR) (human, UniProt P08069 31-932); assay: as above
T4 construct: Bought soluble receptor

[5] = target: T5, rHuman HGF R/c-MET/Fc Chimera, CF (R&D Systems Cat#358-MT/CF) (human, UniProt P08581 25-932); assay: as above
T5 construct: Bought reagent; also called HGF R/Fc

[6] = target: T6, rHuman EGF R/Fc Chimera, CF (R&D Systems Cat#344-ER) (human, UniProt P00533 25-645); assay: as above
T6 construct: Bought reagent

[7] = target: T7, Recombinant Human DLL4 (R&D Systems Cat#1506-D4/CF) (human, UniProt Q9NR61 27-524); assay: as above
T7 construct: Bought recombinant protein; also called delta-like protein 4; rHuman DLL4

[8] = target: T8, rHuman ErbB2/Fc Chimera, CF (R&D Systems Cat#1129-ER) (human, UniProt P04626 23-652); assay: as above
T8 construct: Bought reagent

[9] = target: T9, rHuman Notch-1/Fc Chimera, CF (R&D Systems Cat#3647-TK) (human, UniProt P46531 19-526); assay: as above
T9 construct: Bought reagent

[10] = target: T10, rHuman Notch-1/Fc Chimera, CF (R&D Systems Cat#3647-TK) (human, UniProt P46531 19-526); assay: ECL multispot (MSD) assay, antigen spotted on plate; blank spot of this row 302
T10 construct: Bought recombinant protein; Fc part of the bought chimera not given

[11] = target: T11, rHuman P-Cadherin/Fc Chimera, CF (R&D Systems Cat#861-PC) (human, UniProt P22223 108-654); assay: as above
T11 construct: Bought recombinant protein; Fc part of the bought chimera not given

[12] = target: T12, rHuman Erythropoietin R/Fc Chimera, CF (R&D Systems Cat#963-ER) (human, UniProt P19235 25-250); assay: as above
T12 construct: Bought recombinant protein; also called EPO R; EPO R/Fc; Fc part of the bought chimera not given
T12 sequence (looked up): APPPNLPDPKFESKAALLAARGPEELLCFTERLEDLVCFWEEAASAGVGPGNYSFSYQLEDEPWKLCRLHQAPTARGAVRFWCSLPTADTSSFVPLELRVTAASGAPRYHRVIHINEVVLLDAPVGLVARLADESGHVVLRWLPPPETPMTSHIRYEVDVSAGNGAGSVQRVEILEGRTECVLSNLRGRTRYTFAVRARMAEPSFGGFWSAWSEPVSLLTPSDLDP

[13] = target: T13, Recombinant Human DLL4 (R&D Systems Cat#1506-D4/CF) (human, UniProt Q9NR61 27-524); assay: as above
T13 construct: Bought recombinant protein; also called delta-like protein 4; rHuman DLL4

[14] = target: T14, rHuman ErbB2/Fc Chimera, CF (R&D Systems Cat#1129-ER) (human, UniProt P04626 23-652); assay: as above
T14 construct: Bought recombinant protein; also called human epidermal growth factor 2 receptor; Fc part of the bought chimera not given

[15] = target: T15, rHuman EGF R/Fc Chimera, CF (R&D Systems Cat#344-ER) (human, UniProt P00533 25-645); assay: as above
T15 construct: Bought recombinant protein; also called epidermal growth factor receptor; Fc part of the bought chimera not given

[16] = target: T16, rHuman CD44/Fc Chimera, CF (R&D Systems Cat#3660-CD) (human, UniProt P16070 21-220); assay: as above
T16 construct: Bought recombinant protein; Fc part of the bought chimera not given

[17] = target: T17, rHuman IGF-1 sR, (IGF-1 sR), CF (R&D Systems Cat#391-GR) (human, UniProt P08069 31-932); assay: as above
T17 construct: Bought recombinant soluble receptor; also called insulin-like growth factor-1 soluble receptor

[18] = target: T18, rHuman HGF R/c-MET/Fc Chimera, CF (R&D Systems Cat#358-MT/CF) (human, UniProt P08581 25-932); assay: as above
T18 construct: Bought recombinant protein; also called HGF R/Fc; hepatocyte growth factor receptor; Fc part of the bought chimera not given

[19] = target: T10, rHuman Notch-1/Fc Chimera, CF (R&D …); assay: ECL multispot (MSD) assay, antigen spotted on plate; blank spot of this row 351
[20] = target: T11, rHuman P-Cadherin/Fc Chimera, CF (R&D …); assay: as above
[21] = target: T12, rHuman Erythropoietin R/Fc Chimera, CF …; assay: as above
[22] = target: T13, Recombinant Human DLL4 (R&D Systems …); assay: as above
[23] = target: T14, rHuman ErbB2/Fc Chimera, CF (R&D …); assay: as above
[24] = target: T15, rHuman EGF R/Fc Chimera, CF (R&D …); assay: as above
[25] = target: T16, rHuman CD44/Fc Chimera, CF (R&D Systems …); assay: as above
[26] = target: T17, rHuman IGF-1 sR, (IGF-1 sR), CF (R&D …); assay: as above
[27] = target: T18, rHuman HGF R/c-MET/Fc Chimera, CF (R&D …); assay: as above
[28] = target: T10, rHuman Notch-1/Fc Chimera, CF (R&D …); assay: ECL multispot (MSD) assay, antigen spotted on plate; blank spot of this row 184
[29] = target: T11, rHuman P-Cadherin/Fc Chimera, CF (R&D …); assay: as above
[30] = target: T12, rHuman Erythropoietin R/Fc Chimera, CF …; assay: as above
[31] = target: T13, Recombinant Human DLL4 (R&D Systems …); assay: as above
[32] = target: T14, rHuman ErbB2/Fc Chimera, CF (R&D …); assay: as above
[33] = target: T15, rHuman EGF R/Fc Chimera, CF (R&D …); assay: as above
[34] = target: T16, rHuman CD44/Fc Chimera, CF (R&D Systems …); assay: as above
[35] = target: T17, rHuman IGF-1 sR, (IGF-1 sR), CF (R&D …); assay: as above
[36] = target: T18, rHuman HGF R/c-MET/Fc Chimera, CF (R&D …); assay: as above

B1: Fab VH1-46_IGHD6-6*01_IGHJ1*01 S102A/S103P/S104F/H111F (APFF) & L6_IGKJ1*01 S30N (Fab, V domains shown)
VH: QVQLVQSGAEVKKPGASVKVSCKASGYTFTSYYMHWVRQAPGQGLEWMGIINPSGGSTSYAQKFQGRVTMTRDTSTSTVYMELSSLRSEDTAVYYCAREEYAPFSAEYFQFWGQGTLVTVSS
VL: EIVLTQSPATLSLSPGERATLSCRASQSVNSYLAWYQQKPGQAPRLLIYDASNRATGIPARFSGSGSGTDFTLTISSLEPEDFAVYYCQQRSNWPPWTFGQGTKVEIKR
notes: Tested as Fab made in E. coli: VH joined to CH1 from Plasmid A (His6 and Flag tags), VL joined to kappa CL from Plasmid C; also called APFF / S30N
ECL signal [1]: 396 | ECL signal [2]: 437 | ECL signal [3]: 525 | ECL signal [4]: 362 | ECL signal [5]: 297 | ECL signal [6]: 400 | ECL signal [7]: 175000 | ECL signal [8]: 241 | ECL signal [9]: 296

B2: Fab VH1-46_IGHD6-6*01_IGHJ1*01 S102A/S103P/S104F/H111F (APFF) & L6_IGKJ1*01 S30P (Fab, V domains shown)
VH: QVQLVQSGAEVKKPGASVKVSCKASGYTFTSYYMHWVRQAPGQGLEWMGIINPSGGSTSYAQKFQGRVTMTRDTSTSTVYMELSSLRSEDTAVYYCAREEYAPFSAEYFQFWGQGTLVTVSS
VL: EIVLTQSPATLSLSPGERATLSCRASQSVPSYLAWYQQKPGQAPRLLIYDASNRATGIPARFSGSGSGTDFTLTISSLEPEDFAVYYCQQRSNWPPWTFGQGTKVEIKR
notes: Fab made in E. coli: VH cloned into Plasmid A (CH1, His6 and Flag tags), kappa VL into Plasmid C (kappa CL); also called APFF / S30P
ECL signal [10]: 346 | ECL signal [11]: 413 | ECL signal [12]: 418 | ECL signal [13]: 1260 | ECL signal [14]: 358 | ECL signal [15]: 385 | ECL signal [16]: 411 | ECL signal [17]: 312 | ECL signal [18]: 383

B3: Fab VH1-46_IGHD6-6*01_IGHJ1*01 S102A/S103P/S104F/H111F (APFF) & L6_IGKJ1*01 S30G (Fab, V domains shown)
VH: QVQLVQSGAEVKKPGASVKVSCKASGYTFTSYYMHWVRQAPGQGLEWMGIINPSGGSTSYAQKFQGRVTMTRDTSTSTVYMELSSLRSEDTAVYYCAREEYAPFSAEYFQFWGQGTLVTVSS
VL: EIVLTQSPATLSLSPGERATLSCRASQSVGSYLAWYQQKPGQAPRLLIYDASNRATGIPARFSGSGSGTDFTLTISSLEPEDFAVYYCQQRSNWPPWTFGQGTKVEIKR
notes: Fab made in E. coli: VH cloned into Plasmid A (CH1, His6 and Flag tags), kappa VL into Plasmid C (kappa CL); also called APFF / S30G
ECL signal [19]: 346 | ECL signal [20]: 397 | ECL signal [21]: 480 | ECL signal [22]: 178000 | ECL signal [23]: 260 | ECL signal [24]: 298 | ECL signal [25]: 343 | ECL signal [26]: 304 | ECL signal [27]: 263

B4: Fab VH1-46_IGHD6-6*01_IGHJ1*01 S102A/S103P/S104F/H111F (APFF) & L6_IGKJ1*01 S30A (Fab, V domains shown)
VH: QVQLVQSGAEVKKPGASVKVSCKASGYTFTSYYMHWVRQAPGQGLEWMGIINPSGGSTSYAQKFQGRVTMTRDTSTSTVYMELSSLRSEDTAVYYCAREEYAPFSAEYFQFWGQGTLVTVSS
VL: EIVLTQSPATLSLSPGERATLSCRASQSVASYLAWYQQKPGQAPRLLIYDASNRATGIPARFSGSGSGTDFTLTISSLEPEDFAVYYCQQRSNWPPWTFGQGTKVEIKR
notes: Fab made in E. coli: VH cloned into Plasmid A (CH1, His6 and Flag tags), kappa VL into Plasmid C (kappa CL); also called APFF / S30A
ECL signal [28]: 364 | ECL signal [29]: 317 | ECL signal [30]: 475 | ECL signal [31]: 187000 | ECL signal [32]: 295 | ECL signal [33]: 337 | ECL signal [34]: 451 | ECL signal [35]: 342 | ECL signal [36]: 311
